According to PMC8472245:

molecular target: FLAG-tagged KSHV ORF33 (Kaposi sarcoma-associated herpesvirus (KSHV)); test: not given; conditions: not given
Sequence (F5HEF2 whole entry): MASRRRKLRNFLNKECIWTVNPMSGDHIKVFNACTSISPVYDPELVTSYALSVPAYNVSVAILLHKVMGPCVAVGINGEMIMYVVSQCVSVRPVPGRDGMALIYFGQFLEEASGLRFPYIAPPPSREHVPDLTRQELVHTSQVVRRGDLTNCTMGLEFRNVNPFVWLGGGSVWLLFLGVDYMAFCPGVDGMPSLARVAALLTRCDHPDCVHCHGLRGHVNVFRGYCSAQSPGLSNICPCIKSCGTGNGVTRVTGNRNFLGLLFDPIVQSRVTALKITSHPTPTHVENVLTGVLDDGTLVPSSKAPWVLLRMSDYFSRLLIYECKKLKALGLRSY

With “TAT-C19 peptide (from UniProt F5HDE4 389-407)” as the substance, how does the yield of extracellular KSHV genomes (qPCR) from induced iSLK.BAC16 cells treated with the peptide, up to 200 uM, 5 days; the peptide blocks ORF45-ORF33 read?
The yield of extracellular KSHV genomes (qPCR) from induced iSLK.BAC16 cells treated with the peptide, up to 200 uM, 5 days; the peptide blocks ORF45-ORF33 was 34.1 µM.

molecular target: FLAG-tagged KSHV ORF33; test: ELISA; conditions: parent: est. 0.68; read off a plot

Which response does the source give for “GST-tagged KSHV ORF45-C19 (from UniProt F5HDE4) C396A” here?
The response was 0.058 Absorbance.

How did the response turn out when “GST-tagged KSHV ORF45-C19 (from UniProt F5HDE4) D407A” was run?
The response was 0.69 Absorbance.

“GST-tagged KSHV ORF45-C19 (from UniProt F5HDE4) G397A” was tested. Which response did it give?
Its response is 0.19 Absorbance.

For “GST-tagged KSHV ORF45-C19 (from UniProt F5HDE4) L395A”, which response is on record?
The response was 0.21 Absorbance.

For “GST-tagged KSHV ORF45-C19 (from UniProt F5HDE4) L406A”, which response is on record?
The response was 0.44 Absorbance.

Which response does the source give for “GST-tagged KSHV ORF45-C19 (from UniProt F5HDE4) N402A” here?
The response was 0.69 Absorbance.

For “GST-tagged KSHV ORF45-C19 (from UniProt F5HDE4) P393A”, which response is on record?
The response was 0.42 Absorbance.

Which response does the source give for “GST-tagged KSHV ORF45-C19 (from UniProt F5HDE4) P394A” here?
Its response is 0.058 Absorbance.

Which response does the source give for “GST-tagged KSHV ORF45-C19 (from UniProt F5HDE4) P404A” here?
The response was 0.09 Absorbance.

With “GST-tagged KSHV ORF45-C19 (from UniProt F5HDE4) T392A” as the substance, how does the response read?
Its response is 0.085 Absorbance.

For “GST-tagged KSHV ORF45-C19 (from UniProt F5HDE4) W403A”, which response is on record?
The response was 0.07 Absorbance.

“GST-tagged KSHV ORF45-C19 (from UniProt F5HDE4) W405A” was tested. Which response did it give?
The response was 0.058 Absorbance.

Which response does the source give for “GST-tagged KSHV ORF45-C19 (from UniProt F5HDE4) Y401A” here?
The response was 0.058 Absorbance.
